{
  "source": "patent US9617326B2",
  "about": "“RTRAIL mutant and monomethyl auristatin E conjugate thereof” (Zhejiang University, priority 2012, dated 2017)",
  "molecules": {"B1": {"name": "N109C-vcMMAE: rTRAIL N109C mutant trimer coupled via maleimide-modified valine-citrulline linker to 1-3 MMAE molecules (conjugate)", "chain": "TSEETISTVQEKQQCISPLVRERGPQRVAAHITGTRGRSNTLSSPNSKNEKALGRKINSWESSRSGHSFLSNLHLRNGELVIHEKGFYYIYSQTYFRFQEEIKENTKNDKQMVQYIYKYTSYPDPILLMKSARNSCWSKDAEYGLYSIYQGGIFELKENDRIFVSVTNEHLIDMDHEASFFGAFLVG", "modifications": "non-natural residues", "notes": "rTRAIL N109C mutant trimer coupled via maleimide-modified valine-citrulline linker to 1-3 MMAE molecules"}},
  "key": {"[1]": {"test_system": "NCI-H460 tumor-bearing mice", "conditions": "athymic mice with NCI-H460 tumor; for distribution of fluorescence in mice: about 50 μg Cy5-labeled conjugate via tail vein", "protocol": "N109C-vcMMAE was taken as an example, and the conjugate was tracked in real-time in mice by Fluorescent labeling method to observe tumor targeting ability of the conjugate.\nAthymic mice weighing 20 g were selected and 10^7 NCI-H460 cells were injected subcutaneously in the armpit of one side of the forelegs.\nCy5, as a Near-IR-activated dye, was used as a fluorescent label, so as to facilitate the fluorescence to pass through animal skin and achieve the goal of real time vital observation. In terms of concrete method of Cy5 labeling, please refer to the instruction offered by the manufacturer (Lumiprobe).\n200 μL sample containing about 50 μg Cy5-labeled conjugate was injected into the tumor-bearing mice via tail vein, while equal amount of normal saline was injected into the blank control group.\nSmall living animal imager (NightOWLN320) was used to observe distribution of fluorescence in mice every 24 hours. […] The mice were killed after 4th day, and heart, liver, spleen, lung, kidney and tumor tissues were isolated. […] The white arrow indicates tumor site."}, "[2]": {"test_system": "MCF-7 cells", "assay": "In vitro anti-tumor activity (CCK-8 killing) on MCF-7 cells", "format": "cell-based", "conditions": "MCF-7 (TRAIL resistant type), 32-1000 ng/mL, both low and high concentrations, 96 hours, FIG. 6", "source_text": "(§1) 4 types of cells were selected to measure in vitro anti-tumor activity of the rTRAIL mutant and the MMAE conjugate: TRAIL sensitive type (NCI-H460), TRAIL insensitive type (Hela), TRAIL resistant type (MCF-7) and normal cells (HEK293). All of these 4 types of cells had TRAIL death receptor on their surfaces.\n(§2) Hereinafter, TRAIL sensitive type NCI-H460 cell was taken as an example to give detailed description of the test procedure, including the following steps:\n(§3) (1) Digesting the NCI-H460 cells into individual cells, followed by diluting to 1×10^4 cells/mL, spreading the cells on 96-well plate (100 μL for each well), and culturing the cells for 24 hours under normal condition.\n(§4) (2) Diluting N109C, N109C-vcMMAE and S96C-vcMMAE with culture medium respectively, and adding them into the cell plate with final concentrations of 32, 63, 125, 250, 500, 1000 ng/mL for serving as the test groups, while using standard TRAIL (114-281) as the positive control group, using the buffer (used for dissolving the test sample, diluted with the culture medium in a same manner) as the negative control group, and using the culture medium (without adding any solution) as the blank control group. All the control groups and test groups were tested in triplicate. […]"}, "[3]": {"test_system": "Hela cells", "assay": "In vitro anti-tumor activity (CCK-8 killing) on Hela cells", "format": "cell-based", "conditions": "Hela (TRAIL insensitive type), 32-1000 ng/mL, both low and high concentrations, 96 hours, FIG. 6", "source_text": "as §1, §2, §3, §4"}, "[4]": {"test_system": "NCI-H460 cells", "assay": "Cell endocytosis of the conjugate by tumor cells (laser confocal)", "format": "cell-based", "conditions": "1 μg/mL", "protocol": "NCI-H460 cells were taken as an example to observe behaviors of rTRAIL mutant-vcMMAE conjugate in tumor cells by laser confocal technology, including the following steps:\na) A coverslip was immersed with 1M HCl and 70% ethanol, subjected to ultrasonic treatment for 30 min, washed for 5-6 times with double distilled water and sterilized for later use;\nb) Well-sterilized coverslip was placed in 24-well plate, and cells were plated at 10^4 cells/well and cultured overnight at 37° C.;\nc) Administration: N109C-vcMMAE and S96C-vcMMAE were diluted respectively to a final concentration of 1 μg/mL, and the cells were treated according to step d) at different time points (1st, 4th, 8th and 12th hour), while drug-free culture medium was used for the blank control group; d) The coverslip was washed with cold PBS for 3 times and then fixed with 4% paraformaldehyde for 10 min at room temperature; e) PBS was used to wash the coverslip for another 3 times; f) 0.1% Triton X-100 was added to permeabilize for 10 min at room temperature; g) 2% BSA was added to block for 30 min after 3 times washing with PBS; h) Primary antibody incubation: rabbit anti-human rTRAIL polyclonal antibody was diluted with 1% BSA/PBS to 1 μg/mL and incubated for 45 min at room temperature; i) Secondary antibody incubation: FITC-labeled goat anti-rabbit secondary antibody was diluted 500-fold with 1% BSA/PBS and incubated for 45 min at room temperature; j) Staining cell nucleus with DAPI: after PBS washing (3 times), DAPI diluted 1000-fold with PBS was added dropwise on each coverslip (it was appropriate to just cover the cells), and the coverslip was incubated for about 2 min at 25° C.; k) Mounting: after PBS washing, one drop of Anti-fade Fluorescence Mounting Medium was added on the coverslip, then the coverslip was placed upside down on a glass slide and then sealed with nail polish around the coverslip; l) Cofocal detection: the detection result was shown in FIG. 8."}},
  "note": "Like-named read-outs stand apart in the source and are kept apart here.",
  "data": [
    {"molecule": "B1", "values": [
      {"measurement": "distribution of fluorescence in mice", "setting": "[1]; 3rd day", "result": "most of the fluorescence had gathered on tumor site"},
      {"measurement": "distribution of fluorescence in mice", "setting": "[1]; 4th day", "result": "only the tumor site emitted fluorescence"},
      {"measurement": "tumor-targeting effect", "setting": "[1]; in vivo imaging over 4 days and isolated tissues", "result": "excellent tumor-targeting effect"},
      {"measurement": "killing ability", "setting": "[2]", "result": "stronger killing ability than S96C-vcMMAE"},
      {"measurement": "killing ability", "setting": "[3]", "result": "stronger killing ability than S96C-vcMMAE"},
      {"measurement": "endocytosis by tumor cells (confocal)", "setting": "[4]; 1 hour after administration", "result": "a lot of N109C-vcMMAE had entered the cells"},
      {"measurement": "endocytosis by tumor cells (confocal)", "setting": "[4]; 4 hours", "result": "more and more N109C-vcMMAE entered the cells and began to aggregate slowly"},
      {"measurement": "endocytosis by tumor cells (confocal)", "setting": "[4]; 8 hours", "result": "more aggregating points emerging inside the cells"},
      {"measurement": "endocytosis by tumor cells and apoptosis (confocal)", "setting": "[4]; 12 hours", "result": "aggregating points inside the cells decreased gradually and cell apoptosis began to occur"}
    ]}
  ]
}
